# In patent publication US7259254B2, “Mutants and assay system to identify USP/RXR ligands” (University of Kentucky Research Foundation, priority 2002, dated 2007):
# Numbering of substitutions follows the chain as printed. Names may count otherwise. “Also recorded” adds a separate entry of the source.
# T1: His-tagged wild-type dUSP (Drosophila melanogaster, UniProt P20153)
# T1 construct: His tag; made in house; host or cells: bacteria (pET32EK vector)
# T1 sequence (P20153 1-508): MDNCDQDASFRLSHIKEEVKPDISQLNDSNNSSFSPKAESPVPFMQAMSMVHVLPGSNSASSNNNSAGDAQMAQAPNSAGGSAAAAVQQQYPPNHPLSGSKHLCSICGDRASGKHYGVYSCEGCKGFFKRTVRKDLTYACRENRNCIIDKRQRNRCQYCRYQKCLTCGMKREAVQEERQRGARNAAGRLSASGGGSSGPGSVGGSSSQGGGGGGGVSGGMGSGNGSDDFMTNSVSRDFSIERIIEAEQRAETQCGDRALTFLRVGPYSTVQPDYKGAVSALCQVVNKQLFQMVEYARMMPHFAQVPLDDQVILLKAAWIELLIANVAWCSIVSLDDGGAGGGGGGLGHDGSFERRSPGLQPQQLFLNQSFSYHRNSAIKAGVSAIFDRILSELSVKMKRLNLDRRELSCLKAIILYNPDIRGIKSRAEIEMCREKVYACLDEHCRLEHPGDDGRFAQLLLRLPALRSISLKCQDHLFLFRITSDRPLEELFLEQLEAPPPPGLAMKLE
# B1: C472A/H475L: dUSP ligand-binding pocket double mutant, alanine at 472 and leucine at 475 (protein)
# chain: T1 sequence (P20153 1-508) with C472A, H475L
# B2: W328F: USP mutant, phenylalanine at position 328 (protein)
# chain: T1 sequence (P20153 1-508) with W328F
# B3: P498W/P499W: USP mutant, two prolines at end of α-helix 12 replaced with tryptophan (protein)
# chain: T1 sequence (P20153 1-508) with P498W, P499W
# B4: W318F: USP mutant, phenylalanine at position 318 (protein)
# chain: T1 sequence (P20153 1-508) with W318F
# B5: P498W/P499W/W318F: USP mutant, tryptophan at 498 and 499, phenylalanine at 318 (protein)
# chain: T1 sequence (P20153 1-508) with W318F, P498W, P499W
# B6: W318F/W328F: USP mutant, phenylalanine at positions 318 and 328 (protein)
# chain: T1 sequence (P20153 1-508) with W318F, W328F
# B7: Q288A: dUSP mutant, Gln288 mutated to alanine (protein)
# chain: T1 sequence (P20153 1-508) with Q288A
# B8: P498W/P499W/W318F/W328F: USP mutant, tryptophan at 498 and 499, phenylalanine at 318 and 328 (protein)
# chain: T1 sequence (P20153 1-508) with W318F, W328F, P498W, P499W
# B9: wild-type dUSP: wild type Drosophila melanogaster Ultraspiracle receptor, SEQ ID NO: 2 (protein)
# chain: T1 sequence (P20153 1-508)
# modifications: Drosophila melanogaster
# Assays:
# [1] = target: T1, His-tagged wild-type dUSP; assay: Intrinsic tryptophan fluorescence ligand-binding assay, wild-type dUSP; details: excitation 290 nm, emission 340 nm; 0.5 μm receptor
# Protocol: The homodimer-enriched fraction of bacterial recombinant His-dUSP fusion protein was purified by nickel resin selection, elution with imidazole, centrifugal concentration, and then gel permeation chromatography (Superdex 200) with procedures and chemical sources exactly as already described previously Jones et al. (2000) Insect Biochem. Mol. Biol. 30, 671-679. The homodimer-enriched fraction of the purified His-USP fusion protein was raised to 2 ml of NaCl and a final concentration of 0.5 μm. For a fluorescence-based ligand-binding assay based on intrinsic tryptophan fluorescence Jones et al. (2001) Insect Biochem. Mol. Biol. 32, 33-49; Jones et al (1998) Biochem. J. 335, 79-84; 79-84; Jones et al. (2000) Biochem. J. 346, 233-240; Jones et al (1997) Proc. Natl. Acad. Sci. USA 94, 13499-13503, ligand or ethanol carrier was added and the receptor preparation excited at 290 nm and monitored for emission at 340 nm, until the signal from the receptor had stabilized. Fluorescence was measured three times for each sample, with standard deviation typically smaller than the graphical plotted datum point. Each fluorescence experiment was replicated on three or more independent occasions, each time with similar results.
# The ability of the wild-type dUSP and dominant negative, ligand-binding pocket mutant dUSP to bind methyl epoxyfarnesoate was tested.
# [2] = tested on: 4DR12Core reporter promoter in Sf9 cells (endogenous USP); assay: Dominant negative activity of transfected dUSP mutants on methyl epoxyfarnesoate activation of 4DR12Core reporter in Sf9 cells; assay type: cell-based, Spodoptera frugiperda; details: for dominant negative effect on methyl epoxyfarnesoate-induced activation of 4DR12Core promoter: receptor overexpressed in Sf9 cells, 75 μm methyl epoxyfarnesoate; for Dominant Negative Activity: Table 1, mutants envisioned
# Description: In another embodiment, mutant nuclear hormone receptors disclosed herein comprise amino acid substitutions that render the mutant to act as a “dominant negative.” Dominant negative proteins exploit protein-protein interactions, i.e., the interactions between a mutated protein produced by a transgene and the related native protein inside the cell. The mutant protein forms a dimer with an integral part of a wild type endogenous protein molecule. The mutant protein interacts with a whole range of native compatible gene products. Preferably, the mutant homodimerizes or heterodimerizes with an endogenous wild type partner to form a complex following ligand or independent of ligand binding. Preferably, as opposed to a complex of wild type monomers, a complex of a mutant and its endogenous wild type partner will be incapable of initiating transcription at a hormone receptor response reporter gene. Assays for determining dominant negative activity may be found in Examples 6 and 7 as well as FIG. 4.
# Spodoptera frugiperda cell line, Sf9, was maintained and transfected as described previously Jones et al (1998) Biochem. J. 335, 79-84; Jones et al. (2000) Biochem. J. 346, 233-240. As an internal control to compare activities of different constructs, 0.3 μg of a constituitive heat-shock promoter-driven β-galactosidase gene was cotransfected. To study the role of USP in activation of the nuclear hormone receptor response element fused to core promoter in methyl epoxyfarnesoate-treated cells, cloned D. melangaster USP (dUSP) cDNA and its derivatives containing mutations in the ligand-binding pocket were cotransfected with the reporter and internal control plasmids. […] After 48 h of the treatment, the cells were harvested and the activity of the luciferase reporter was measured using a luciferase assay kit (Promega) in a multipurpose scintillation counter (Beckman, Fullerton, Calif.). β-Galactosidase activity was measured using chlorophenol red-[…] monosodium (CPRG; Roche Molecular Biochemicals) as a colorimetric substrate.
# His-tagged dUSP dominant negative double mutant Cys472Ala/His475Leu (C472A/H475L) was over expressed in methyl epoxyfarnesoate-treated Sf9 cells that were cotransfected with the 4DR12Core reporter plasmid.
# Under the model that overexpression of the C472A/H475L double mutant competed with endogenous USP in the pathways for transduction of the exogenous methyl epoxyfarnesoate signal, the level of effect of the double mutant ought to be dependent on its dose. […] This background of the blocked activation pathway was used to test whether activation by methyl epoxyfarnesoate treatment was actually dependent on the presence of wild-type USP. […] Again, over the range of the monotonic restoration of methyl epoxyfarnesoate-activated transcription, there was no effect of the transfected wild-type dUSP on the basal level of transcription in EtOH-treated controls.
# DR12 motif = assay: Electrophoretic mobility shift assay of recombinant dUSP on DR12 probe; assay type: binding; details: 500 nm His-tagged receptor
# Description: Nuclear extracts were isolated from Sf9 cells as previously described Jones et al. (2001) Insect Biochem. Mol. Biol. 32, 33-49; Jones et al (1998) Biochem. J. 335, 79-84; 79-84; Jones et al. (2000) Biochem. J. 346, 233-240. For the DR12 probe, the double stranded DR12 oligonucleotide (sequence as shown above) was 5′ end-labelled with ^32P by T4 polynucleotide kinase (New England Biolabs Inc.), and then purified from a 20% native polyacrylamide gel. The same double stranded DR12 oligonucleotide was used in 100-fold excess as a self competitor. For the 4DR12Core probe, the 4DR12Core sequence was liberated from the vector as a 148-bp ClaI/HindIII fragment, and was 5′ end-labelled with ^32P and purified. The same, unlabelled fragment was used at 100-fold excess as a self competitor. As a negative control for specificity in gel shifts, the 36 bp BglII/KpnI polylinker region fragment of the pGL3 vector was liberated and recovered from low melting point agarose gels and used as a 100 nonself competitor (sequence: […], SEQ ID NO: 17). […]
# In addition, both receptor preparations bound to the probe similarly in part as monomer and in part as homodimer. […] Thus, any difference detected in ligand binding of the two receptors is most reasonably inferred as arising from differences in the architecture inside the cavity of the ligand-binding pocket due to the C472A/H475L point mutations.
molecule,measurement,setting,value
CC(C)=CCCC(C)=CCCC(C)=CCO [farnesol],"effect on receptor intrinsic fluorescence (ligand binding), wild-type dUSP",[1],do not have that effect
B1,dominant negative effect on methyl epoxyfarnesoate-induced activation of 4DR12Core promoter,[2],distinct suppression; also recorded: progressive suppression
same,binding to DR12 motif in gel shift,DR12 motif,similarly bound to a DR12 motif
B2,dominant negative effect on methyl epoxyfarnesoate-induced activation of 4DR12Core promoter,[2],not a dominant negative
B3,dominant negative effect on methyl epoxyfarnesoate-induced activation of 4DR12Core promoter,[2],not a dominant negative
B4,Dominant Negative Activity,[2],Weak Activity
same,dominant negative effect on methyl epoxyfarnesoate-induced activation of 4DR12Core promoter,[2],weak dominant negative
B5,Dominant Negative Activity,[2],Weak Activity
B6,Dominant Negative Activity,[2],Weak Activity
B7,dominant negative effect on methyl epoxyfarnesoate-induced activation of 4DR12Core promoter,[2],acted as a dominant negative suppressor
B8,Dominant Negative Activity,[2],Weak Activity
B9,binding to DR12 motif in gel shift,DR12 motif,similarly bound to a DR12 motif
